Target: T1, PVR-Ig (extracellular portion of human PVR fused to the Fc domain of human IgG1) (human, UniProt P15151 21-343)
T1 construct: PVR (poliovirus receptor), human ligand of TIGIT, extracellular portion; source: HEK293T, transfected (pIRESpuro3), secreted, purified (HiTrap Protein G HP)
T1 sequence: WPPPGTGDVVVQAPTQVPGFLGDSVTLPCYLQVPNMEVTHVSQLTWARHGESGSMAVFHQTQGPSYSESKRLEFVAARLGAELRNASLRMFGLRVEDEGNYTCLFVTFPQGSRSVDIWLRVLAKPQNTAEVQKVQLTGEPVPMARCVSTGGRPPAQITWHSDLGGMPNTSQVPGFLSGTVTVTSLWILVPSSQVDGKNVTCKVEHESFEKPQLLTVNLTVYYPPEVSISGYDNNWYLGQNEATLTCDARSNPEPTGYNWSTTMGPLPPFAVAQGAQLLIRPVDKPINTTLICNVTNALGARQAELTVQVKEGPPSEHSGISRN
Assay: MST; RED-NHS labeled TIGIT-Ig at constant level, unlabeled Ig-fusion proteins serially diluted in 1x PBS; Monolith NT.115, 20% MST power, 95% LED power, standard capillaries, 25 °C
Settings: both partners purified

B1: TIGIT-Ig (extracellular ligand-binding domain of human TIGIT fused to the Fc domain of human IgG1) (Fc fusion)
chain: MMTGTIETTGNISAEKGGSIILQCHLSSTTAQVTQVNWEQQDQLLAICNADLGWHISPSFKDRVAPGPGLGLTLQSLTVNDTGEYFCIYHTYPDGTYTGRIFLEVLESSVAEHGARFQIP
modifications: fluorescently labeled with the Monolith NT Protein Labeling Kit RED-NHS
notes: also called human TIGIT-Ig; T cell immunoreceptor with Ig and ITIM domains; source: HEK293T, transfected (pIRESpuro3), secreted, purified (HiTrap Protein G HP)
B1: binds.

Reference: paper PMC9072312, “Candida albicans evades NK cell elimination via binding of Agglutinin-Like Sequence proteins to the checkpoint receptor TIGIT” (Nature Communications, 2022)
